Laboratory results as given in paper PMC7729955 (2020).

T1: biotinylated TGPAvi (Galaxea fascicularis (coral), biotin on the Avi-tag (BirA))
T1 chain 1: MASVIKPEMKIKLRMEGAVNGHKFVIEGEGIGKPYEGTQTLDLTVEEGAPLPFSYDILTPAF
T1 chain 2: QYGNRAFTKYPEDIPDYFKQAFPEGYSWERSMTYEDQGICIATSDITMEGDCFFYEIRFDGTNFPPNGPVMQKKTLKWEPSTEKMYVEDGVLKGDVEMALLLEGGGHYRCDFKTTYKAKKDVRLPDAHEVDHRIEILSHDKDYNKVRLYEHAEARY


Legend:
biotinylated TGPAvi [1] = molecular target: T1, biotinylated TGPAvi; assay: BLI
biotinylated TGPAvi [2] = molecular target: T1, biotinylated TGPAvi; assay: BLI

Row | koff (biotinylated TGPAvi [1]) | Kd (biotinylated TGPAvi [2]) | Binder
1 | 0.00085 s⁻¹ | 4.4 nM | sybody 44 (VHH) VHH: QVQLVESGGGLVQAGGSLRLSCAASGFPVGRASMWWYRQAPGKEREWVAAISSYGWVTAYADSVKGRFTISRDNAKNTVYLQMNSLKPEDTAVYYCEVSVGTGYRGQGTQVTVS
2 | 0.0012 s⁻¹ | 10.4 nM | sybody 68 (VHH) VHH: QVQLVESGGGLVQAGGSLRLSCAASGFPVNAVTMWWYRQAPGKEREWVAAIKSQGAGTWYADSVKGRFTISRDNAKNTVYLQMNSLKPEDTAVYYCHVYVGAYRYEGRGTQVTVS
3 | 0.00066 s⁻¹ | 3.3 nM | sybody 92 (VHH) VHH: QVQLVESGGGLVQAGGSLRLSCAASGFPVDTQWMHWYRQAPGKEREWVAAISSTGRSTFYADSVKGRFTISRDNAKNTVYLQMNSLKPEDTAVYYCTVYVGNRYRGQGTQVTVS
4 | 0.0013 s⁻¹ | 7.8 nM | sybody 66 (VHH) VHH: QVQLVESGGGLVQAGGSLRLSCAASGFPVMENSMYWYRQAPGKEREWVAAITSQGSWTWYADSVKGRFTISRDNAKNTVYLQMNSLKPEDTAVYYCHVSVGTNYTGQGTQVTVS
